Source: US10745460B2, “Peptides and combination of peptides for use in immunotherapy against various tumors” (Immatics Biotechnologies GmbH, priority 2015, dated 2020)

target: HLA-A*02:01 (Homo sapiens, UniProt P04439, D140Y/D185E/D98H/E176V/E277Q/G131W/G231S/I119V/I121R/I166T/I218V/L300P/L318F/N151K/N90K/P208A/P217A/Q86G/Q94H/R138H/R169H/T345S); experiment: MHC binding assay: UV-ligand exchange with β2m ELISA (peptide exchange yield); details: binding to HLA-A*02:01 evaluated by peptide exchange yield (UV-ligand exchange, β2m ELISA)
Description: Candidate peptides for T cell based therapies according to the present invention were further tested for their MHC binding capacity (affinity). The individual peptide-MHC complexes were produced by UV-ligand exchange, where a UV-sensitive peptide is cleaved upon UV-irradiation, and exchanged with the peptide of interest as analyzed. Only peptide candidates that can effectively bind and stabilize the peptide-receptive MHC molecules prevent dissociation of the MHC complexes. To determine the yield of the exchange reaction, an ELISA was performed based on the detection of the light chain (β2m) of stabilized MHC complexes. The assay was performed as generally described in Rodenko et al. (Rodenko et al., 2006).
96 well MAXISorp plates (NUNC) were coated over night with 2 ug/ml streptavidin in PBS at room temperature, washed 4× and blocked for 1 h at 37° C. in 2% BSA containing blocking buffer. Refolded HLA-A*02:01/MLA-001 monomers served as standards, covering the range of 15-500 ng/ml. Peptide-MHC monomers of the UV-exchange reaction were diluted 100 fold in blocking buffer. Samples were incubated for 1 h at 37° C., washed four times, incubated with 2 ug/ml HRP conjugated anti-β2m for 1 h at 37° C., washed again and detected with TMB solution that is stopped with […]. Absorption was measured at 450 nm. Candidate peptides that show a high exchange yield (preferably higher than 50%, most preferred higher than 75%) are generally preferred for a generation and production of antibodies or fragments thereof, and/or T cell receptors or fragments thereof, as they show sufficient avidity to the MHC molecules and prevent dissociation of the MHC complexes.

Peptide exchange | Substance
++ (≥20% = ++) | 149 (NMADGQLHQV; listed as Homo sapiens) [compound 149]
+++ (≥50 = +++) | 150 (VLLDMVHSL; listed as Homo sapiens) [compound 150]
++ (≥20% = ++) | 151 (DISKRIQSL; listed as Homo sapiens) [compound 151]
+++ (≥50 = +++) | 153 (KLVELEHTL; listed as Homo sapiens) [compound 153]
++ (≥20% = ++) | 154 (AIIKEIQTV; listed as Homo sapiens) [compound 154]
++ (≥20% = ++) | 155 (TLDSYLKAV; listed as Homo sapiens) [compound 155]
++ (≥20% = ++) | 157 (ILQDGQFLV; listed as Homo sapiens) [compound 157]
+++ (≥50 = +++) | 158 (YLDPLWHQL; listed as Homo sapiens) [compound 158]
+++ (≥50 = +++) | 159 (QLGPVPVTI; listed as Homo sapiens) [compound 159]
+++ (≥50 = +++) | 160 (TLQEWLTEV; listed as Homo sapiens) [compound 160]
++++ (≥75% = ++++) | 161 (NLLDENVCL; listed as Homo sapiens) [compound 161]
+++ (≥50 = +++) | 162 (GLLGNLLTSL; listed as Homo sapiens) [compound 162]
++ (≥20% = ++) | 163 (GLEERLYTA; listed as Homo sapiens) [compound 163]
+++ (≥50 = +++) | 164 (MLIIRVPSV; listed as Homo sapiens) [compound 164]
+++ (≥50 = +++) | 165 (SLLDYEVSI; listed as Homo sapiens) [compound 165]
+++ (≥50 = +++) | 166 (LLGDSSFFL; listed as Homo sapiens) [compound 166]
+++ (≥50 = +++) | 167 (LVVDEGSLVSV; listed as Homo sapiens) [compound 167]
+++ (≥50 = +++) | 168 (VIFEGEPMYL; listed as Homo sapiens) [compound 168]
+++ (≥50 = +++) | 169 (ALADLSVAV; listed as Homo sapiens) [compound 169]
++ (≥20% = ++) | 170 (FIAAVVEKV; listed as Homo sapiens) [compound 170]
++ (≥20% = ++) | 171 (LLLLDVPTA; listed as Homo sapiens) [compound 171]
+++ (≥50 = +++) | 173 (RLIDIYKNV; listed as Homo sapiens) [compound 173]
++ (≥20% = ++) | 174 (ALYSGDLHAA; listed as Homo sapiens) [compound 174]
+++ (≥50 = +++) | 175 (SLLDLVQSL; listed as Homo sapiens) [compound 175]

Peptide exchange | Substance
++ (≥20% = ++) | 176 (VQSGLRILL; listed as Homo sapiens) [compound 176]
+++ (≥50 = +++) | 177 (ALINVLNAL; listed as Homo sapiens) [compound 177]
++++ (≥75% = ++++) | 178 (SLVSWQLLL; listed as Homo sapiens) [compound 178]
+++ (≥50 = +++) | 179 (TLGEIIKGV; listed as Homo sapiens) [compound 179]
+++ (≥50 = +++) | 180 (RLYEEEIRI; listed as Homo sapiens) [compound 180]
+++ (≥50 = +++) | 181 (LLWAPTAQA; listed as Homo sapiens) [compound 181]
+++ (≥50 = +++) | 182 (GLQDGFQITV; listed as Homo sapiens) [compound 182]
+++ (≥50 = +++) | 183 (ALSYILPYL; listed as Homo sapiens) [compound 183]
++ (≥20% = ++) | 184 (ALDSTIAHL; listed as Homo sapiens) [compound 184]
++ (≥20% = ++) | 185 (TLYQGLPAEV; listed as Homo sapiens) [compound 185]
++ (≥20% = ++) | 187 (SILKEDPFL; listed as Homo sapiens) [compound 187]
++ (≥20% = ++) | 188 (VLGEEQEGV; listed as Homo sapiens) [compound 188]
+++ (≥50 = +++) | 190 (SLSTELFKV; listed as Homo sapiens) [compound 190]
+++ (≥50 = +++) | 191 (AAIEIFEKV; listed as Homo sapiens) [compound 191]
++ (≥20% = ++) | 192 (TLLPSSGLVTL; listed as Homo sapiens) [compound 192]
+++ (≥50 = +++) | 193 (ALFHMNILL; listed as Homo sapiens) [compound 193]
++ (≥20% = ++) | 194 (KLLEEVQLL; listed as Homo sapiens) [compound 194]
+++ (≥50 = +++) | 195 (VIIQNLPAL; listed as Homo sapiens) [compound 195]
++ (≥20% = ++) | 198 (ILTNKVVSV; listed as Homo sapiens) [compound 198]
++ (≥20% = ++) | 199 (SVADLAHVL; listed as Homo sapiens) [compound 199]
+++ (≥50 = +++) | 200 (IMPTFDLTKV; listed as Homo sapiens) [compound 200]
++ (≥20% = ++) | 203 (FLFVDPELV; listed as Homo sapiens) [compound 203]
+++ (≥50 = +++) | 204 (SEWGSPHAAVP; listed as Homo sapiens) [compound 204]
++++ (≥75% = ++++) | 206 (GLDAFRIFL; listed as Homo sapiens) [compound 206]

Peptide exchange | Substance
+++ (≥50 = +++) | 207 (KLFETVEEL; listed as Homo sapiens) [compound 207]
++ (≥20% = ++) | 208 (HLNNDRNPL; listed as Homo sapiens) [compound 208]
+++ (≥50 = +++) | 210 (GLAGDNIYL; listed as Homo sapiens) [compound 210]
+++ (≥50 = +++) | 211 (LLTTVLINA; listed as Homo sapiens) [compound 211]
++ (≥20% = ++) | 212 (MTLSEIHAV; listed as Homo sapiens) [compound 212]
+++ (≥50 = +++) | 213 (ILAVDGVLSV; listed as Homo sapiens) [compound 213]
+++ (≥50 = +++) | 214 (ALFETLIQL; listed as Homo sapiens) [compound 214]
++ (≥20% = ++) | 215 (QIADIVTSV; listed as Homo sapiens) [compound 215]
++ (≥20% = ++) | 216 (ALSTVTPRI; listed as Homo sapiens) [compound 216]
+++ (≥50 = +++) | 217 (LLWPSSVPA; listed as Homo sapiens) [compound 217]
+++ (≥50 = +++) | 218 (SLTGANITV; listed as Homo sapiens) [compound 218]
++ (≥20% = ++) | 219 (GVVPTIQKV; listed as Homo sapiens) [compound 219]
+++ (≥50 = +++) | 220 (ALSELERVL; listed as Homo sapiens) [compound 220]
++ (≥20% = ++) | 221 (IMLNSVEEI; listed as Homo sapiens) [compound 221]
++ (≥20% = ++) | 222 (LLTGVFAQL; listed as Homo sapiens) [compound 222]
+++ (≥50 = +++) | 223 (ALHPVQFYL; listed as Homo sapiens) [compound 223]
+++ (≥50 = +++) | 224 (LLFDWSGTGRADA; listed as Homo sapiens) [compound 224]
+++ (≥50 = +++) | 225 (FLPQPVPLSV; listed as Homo sapiens) [compound 225]
+++ (≥50 = +++) | 226 (SLAGNLQEL; listed as Homo sapiens) [compound 226]
+ (≥10% = +) | 227 (SEMEELPSV; listed as Homo sapiens) [compound 227]
+++ (≥50 = +++) | 228 (SLLELDGINLRL; listed as Homo sapiens) [compound 228]
++ (≥20% = ++) | 229 (YLYELEHAL; listed as Homo sapiens) [compound 229]
+++ (≥50 = +++) | 230 (KLLNMIFSI; listed as Homo sapiens) [compound 230]
+++ (≥50 = +++) | 231 (LLDDIFIRL; listed as Homo sapiens) [compound 231]
